Usually Kd stands for a measure of binding affinity in units of concentration. Read a high Kd as weaker binding.

One molecule from publication PMC9585388 (Research and Practice in Thrombosis and Haemostasis, 2022) can be followed below.

The target in the assay is T1, fibrinogen (UniProt P02671-2;P02675;P02679-2).
T1 sequence 1: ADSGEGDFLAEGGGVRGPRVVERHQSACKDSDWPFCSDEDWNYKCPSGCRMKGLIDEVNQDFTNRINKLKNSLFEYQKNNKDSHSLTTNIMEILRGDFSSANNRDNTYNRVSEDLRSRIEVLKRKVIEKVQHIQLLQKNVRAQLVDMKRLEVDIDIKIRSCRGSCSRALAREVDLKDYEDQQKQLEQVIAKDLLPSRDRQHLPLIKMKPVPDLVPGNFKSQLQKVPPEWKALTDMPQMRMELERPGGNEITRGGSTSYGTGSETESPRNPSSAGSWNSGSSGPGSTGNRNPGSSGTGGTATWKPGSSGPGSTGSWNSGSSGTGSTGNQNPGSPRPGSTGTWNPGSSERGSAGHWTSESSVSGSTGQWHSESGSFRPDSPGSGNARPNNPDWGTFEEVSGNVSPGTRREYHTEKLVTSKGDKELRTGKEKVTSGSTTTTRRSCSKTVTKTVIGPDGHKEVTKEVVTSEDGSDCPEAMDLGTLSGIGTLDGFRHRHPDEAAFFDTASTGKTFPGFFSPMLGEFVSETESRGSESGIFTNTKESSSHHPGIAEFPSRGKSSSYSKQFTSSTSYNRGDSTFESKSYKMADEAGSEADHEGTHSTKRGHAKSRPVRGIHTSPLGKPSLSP
T1 sequence 2: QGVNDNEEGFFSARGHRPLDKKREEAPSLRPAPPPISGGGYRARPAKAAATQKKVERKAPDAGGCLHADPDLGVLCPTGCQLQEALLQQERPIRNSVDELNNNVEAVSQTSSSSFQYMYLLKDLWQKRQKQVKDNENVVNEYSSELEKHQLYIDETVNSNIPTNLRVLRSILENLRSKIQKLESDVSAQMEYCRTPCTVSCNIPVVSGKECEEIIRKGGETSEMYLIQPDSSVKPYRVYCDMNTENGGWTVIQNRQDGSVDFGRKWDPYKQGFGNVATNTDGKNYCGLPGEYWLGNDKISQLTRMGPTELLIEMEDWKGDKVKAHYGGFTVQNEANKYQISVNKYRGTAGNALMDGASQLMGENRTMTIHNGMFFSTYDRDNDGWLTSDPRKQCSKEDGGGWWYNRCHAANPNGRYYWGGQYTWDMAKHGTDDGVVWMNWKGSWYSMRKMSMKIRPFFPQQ
T1 sequence 3: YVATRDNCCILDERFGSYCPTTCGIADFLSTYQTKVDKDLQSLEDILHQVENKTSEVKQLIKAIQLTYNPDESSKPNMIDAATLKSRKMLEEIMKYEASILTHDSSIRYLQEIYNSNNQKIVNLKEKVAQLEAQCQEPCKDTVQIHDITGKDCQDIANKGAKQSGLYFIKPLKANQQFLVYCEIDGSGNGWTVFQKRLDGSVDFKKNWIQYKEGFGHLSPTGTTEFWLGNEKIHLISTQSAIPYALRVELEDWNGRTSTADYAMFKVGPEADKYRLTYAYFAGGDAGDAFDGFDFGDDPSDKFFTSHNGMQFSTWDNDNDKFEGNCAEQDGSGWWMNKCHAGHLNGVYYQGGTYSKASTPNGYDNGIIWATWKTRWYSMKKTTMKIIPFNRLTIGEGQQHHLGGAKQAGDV
In words: BLI. (In general: BLI is a label-free optical method that tracks binding on a fibre tip over time.)

B1: recombinant FXIII‐B (natural protein)
chain: EEKPCGFPHVENGRIAQYYYTFKSFYFPMSIDKKLSFFCLAGYTTESGRQEEQTTCTTEGWSPEPRCFKKCTKPDLSNGYISDVKLLYKIQENMRYGCASGYKTTGGKDEEVVQCLSDGWSSQPTCRKEHETCLAPELYNGNYSTTQKTFKVKDKVQYECATGYYTAGGKKTEEVECLTYGWSLTPKCTKLKCSSLRLIENGYFHPVKQTYEEGDVVQFFCHENYYLSGSDLIQCYNFGWYPESPVCEGRRNRCPPPPLPINSKIQTHSTTYRHGEIVHIECELNFEIHGSAEIRCEDGKWTEPPKCIEGQEKVACEEPPFIENGAANLHSKIYYNGDKVTYACKSGYLLHGSNEITCNRGKWTLPPECVENNENCKHPPVVMNGAVADGILASYATGSSVEYRCNEYYLLRGSKISRCEQGKWSSPPVCLEPCTVNVDYMNRNNIEMKWKYEGKVLHGDLIDFVCKQGYDLSPLTPLSELSVQCNRGEVKYPLCTRKESKGMCTSPPLIKHGVIISSTVDTYENGSSVEYRCFDHHFLEGSREAYCLDGMWTTPPLCLEPCTLSFTEMEKNNLLLKWDFDNRPHILHGEYIEFICRGDTYPAELYITGSILRMQCDRGQLKYPRCIPRQSTLSYQEPLRT
Take B1: binding was put at a Kd of 46.9 nM.
